Residue numbers refer to the chain shown, from its start.
Assays:
Assay in all cases: ITC; ligand (peptide or CAR-1 fragment, 0.5 mM) injected into CGH-1_(248-420) or mutant (0.05 mM) in the cell; 20 °C; Buffer B (20 mM Tris-HCl pH 7.5, 150 mM NaCl); one-binding-site model
Conditions in all cases: both partners purified
[1] = target: T1, CGH-1_(248–420) R393A (C. elegans, UniProt Q95YF3 248-420, R393A)
T1 construct: Mutant of m1 made with the MutanBEST kit; source: E. coli Gold (DE3), purified (Ni-chelating resin, SEC Superdex 75)
T1 sequence (looked up): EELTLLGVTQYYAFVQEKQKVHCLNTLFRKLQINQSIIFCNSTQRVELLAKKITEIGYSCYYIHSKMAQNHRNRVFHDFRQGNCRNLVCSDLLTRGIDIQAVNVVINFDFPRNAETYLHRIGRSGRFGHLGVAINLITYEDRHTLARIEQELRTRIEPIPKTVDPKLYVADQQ

[2] = target: T2, CGH-1_(248–420) Q266A (C. elegans, UniProt Q95YF3 248-420, Q266A)
T2 construct: Mutant of m1 made with the MutanBEST kit; source: E. coli Gold (DE3), purified (Ni-chelating resin, SEC Superdex 75)
T2 sequence (looked up): T1 sequence (looked up) with Q19A, A146R

[3] = target: T3, CGH-1_(248–420) K277A (C. elegans, UniProt Q95YF3 248-420, K277A)
T3 construct: Mutant of m1 made with the MutanBEST kit; source: E. coli Gold (DE3), purified (Ni-chelating resin, SEC Superdex 75)
T3 sequence (looked up): T1 sequence (looked up) with K30A, A146R

[4] = target: T4, CGH-1_(248–420) Y386A (C. elegans, UniProt Q95YF3 248-420, Y386A)
T4 construct: Mutant of m1 made with the MutanBEST kit; source: E. coli Gold (DE3), purified (Ni-chelating resin, SEC Superdex 75)
T4 sequence (looked up): T1 sequence (looked up) with Y139A, A146R

[5] = target: T5, CGH-1_(248–420) V262A (C. elegans, UniProt Q95YF3 248-420, V262A)
T5 construct: Mutant of m1 made with the MutanBEST kit; source: E. coli Gold (DE3), purified (Ni-chelating resin, SEC Superdex 75)
T5 sequence (looked up): T1 sequence (looked up) with V15A, A146R

[6] = target: T6, CGH-1_(248–420) wild type (CGH-1 RecA2 domain) (C. elegans, UniProt Q95YF3 248-420)
T6 construct: Cloned into NdeI/XhoI of a modified pET-28a in which the thrombin cleavage site was removed; also called CGH-1_248-420^WT; source: E. coli Gold (DE3), purified (Ni-chelating resin, SEC Superdex 75)
T6 sequence (looked up): T1 sequence (looked up) with A146R

[7] = target: T7, CGH-1_(248–420) H269A (C. elegans, UniProt Q95YF3 248-420, H269A)
T7 construct: Mutant of m1 made with the MutanBEST kit; source: E. coli Gold (DE3), purified (Ni-chelating resin, SEC Superdex 75)
T7 sequence (looked up): T1 sequence (looked up) with H22A, A146R

B1: PATR-1 peptide (CePATR-1_(30–67)) (peptide)
peptide: SDEDHNIFDDEFDAANDETFGGGLDNIGENAELENYAT
notes: PATR-1 (Pat1 ortholog), C. elegans, residues 30-67; Printed with free NH2 and COOH ends; also called PATR1_30-67^WT; CePATR-1 peptide; source: synthetic peptide (GL Biochem, Shanghai)
In the case of B1, the Kd [1] is reported as 4.22 ± 0.62 µM, the dH [1] is reported as -16.6 ± 0.69 kcal/mol and the “stoichiometry N” value [1] is reported as 0.8. The Kd [2] was 2.97 ± 0.29 µM, the dH [2] was -16.6 ± 0.41 kcal/mol and the “stoichiometry N” value [2] was 0.86. The Kd [3] was 4.43 ± 0.42 µM, the dH [3] was -17.2 ± 0.57 kcal/mol and the “stoichiometry N” value [3] was 1.07. For the same binder, the Kd [4] was 4.19 ± 0.58 µM, the dH [4] was -14.2 ± 0.56 kcal/mol and the “stoichiometry N” value [4] was 0.85. The Kd [5] was 4.94 ± 0.79 µM, the dH [5] was -17.3 ± 0.82 kcal/mol and the “stoichiometry N” value [5] was 0.84. For the same binder, the Kd [6] was 2.13 ± 0.38 µM, the dH [6] was -15.8 ± 0.62 kcal/mol and the “stoichiometry N” value [6] was 0.88. The Kd [7] was 2.67 ± 0.44 µM, the dH [7] was -15.4 ± 0.67 kcal/mol and the “stoichiometry N” value [7] was 0.94.

Reference: article PMC8514580, “Insight into the interaction between the RNA helicase CGH-1 and EDC-3 and its implications” (Scientific Reports, 2021)
